From article PMC4739419, “Mutations in the nucleotide binding and hydrolysis domains of Helicobacter pylori MutS2 lead to altered biochemical activities and inactivation of its in vivo function” (BMC Microbiology, 2016)

B1: HpMutS2-E413A (enzyme)
chain: MSDAPKRSLNPTLMMNNNNTPPKPLEESLDLKEFIALFKTFFAKERDTIALENDLKQTFTYLNEVDAIGLPTPKSVKESDLIIIKLTKLGTLHLDEIFEIVKRLHYIVVLQNAFKTFTHLKFHERLNAIVLPPFFNDLIALFDDEGKIKQGANATLDALNESLNRLKKESVKIIHHYARSKELAPYLVDTQSHLKHGYECLLLKSGFSGAIKGVVLERSANGYFYLLPESAQKIAQKIAQIGNEIDCCIVEMCQTLSHSLQKHLLFLKFLFKEFDFLDSLQARLNFAKAYNLEFVMPSFTQKKMILENFSHPILKEPKPLNLKFEKSMLAVTGVNAGGKTMLLKSLLSAAFLSKHLIPMKINAHHSIIPYFKEIHAIINDPQNSANNISTFAGRMKQFSALLSKENMLLGVDAIELGTDADEASSLYKTLLEKLLKQNNQIIITTHHKRLSVLMAENKEVELLAALYDEEKERPTYTFLKGVIGKSYAFETALRYGVPHFLIEKAKTFYGEDKEKLNVLIENSSALERELKQKNEHLENALKEQEYLKNAWLLEMEKQKEIFHNKKLELEKSYQQALNILKSEVASKDTSSMHKEIHKASEILSKHKTNQEIPQIITNFQANEKARYKNESVLIVQILDKGYYWIETELGMRLKAHGSLLKKIQKPPKNKFKPPKTTIPKPKEASLRLDLRGQRSEEALDLLDAFLNDALLGGFEEVLICHGKGSGILEKFVKEFLKNHPKVVSFSDAPINLGGSGVKIVKL
notes: also called Walker-B mutant
B2: HpMutS2: Helicobacter pylori MutS2 (1-762), C-terminally His6-tagged wild-type protein, nuclease and ABC ATPase (protein)
chain: MSDAPKRSLNPTLMMNNNNTPPKPLEESLDLKEFIALFKTFFAKERDTIALENDLKQTFTYLNEVDAIGLPTPKSVKESDLIIIKLTKLGTLHLDEIFEIVKRLHYIVVLQNAFKTFTHLKFHERLNAIVLPPFFNDLIALFDDEGKIKQGANATLDALNESLNRLKKESVKIIHHYARSKELAPYLVDTQSHLKHGYECLLLKSGFSGAIKGVVLERSANGYFYLLPESAQKIAQKIAQIGNEIDCCIVEMCQTLSHSLQKHLLFLKFLFKEFDFLDSLQARLNFAKAYNLEFVMPSFTQKKMILENFSHPILKEPKPLNLKFEKSMLAVTGVNAGGKTMLLKSLLSAAFLSKHLIPMKINAHHSIIPYFKEIHAIINDPQNSANNISTFAGRMKQFSALLSKENMLLGVDEIELGTDADEASSLYKTLLEKLLKQNNQIIITTHHKRLSVLMAENKEVELLAALYDEEKERPTYTFLKGVIGKSYAFETALRYGVPHFLIEKAKTFYGEDKEKLNVLIENSSALERELKQKNEHLENALKEQEYLKNAWLLEMEKQKEIFHNKKLELEKSYQQALNILKSEVASKDTSSMHKEIHKASEILSKHKTNQEIPQIITNFQANEKARYKNESVLIVQILDKGYYWIETELGMRLKAHGSLLKKIQKPPKNKFKPPKTTIPKPKEASLRLDLRGQRSEEALDLLDAFLNDALLGGFEEVLICHGKGSGILEKFVKEFLKNHPKVVSFSDAPINLGGSGVKIVKL
modifications: left off: His6, C-terminal, state not stated
notes: Helicobacter pylori MutS2 (1-762), C-terminally His6-tagged wild-type protein, nuclease and ABC ATPase
B3: HpMutS2-G338R (protein)
chain: MSDAPKRSLNPTLMMNNNNTPPKPLEESLDLKEFIALFKTFFAKERDTIALENDLKQTFTYLNEVDAIGLPTPKSVKESDLIIIKLTKLGTLHLDEIFEIVKRLHYIVVLQNAFKTFTHLKFHERLNAIVLPPFFNDLIALFDDEGKIKQGANATLDALNESLNRLKKESVKIIHHYARSKELAPYLVDTQSHLKHGYECLLLKSGFSGAIKGVVLERSANGYFYLLPESAQKIAQKIAQIGNEIDCCIVEMCQTLSHSLQKHLLFLKFLFKEFDFLDSLQARLNFAKAYNLEFVMPSFTQKKMILENFSHPILKEPKPLNLKFEKSMLAVTGVNAGRKTMLLKSLLSAAFLSKHLIPMKINAHHSIIPYFKEIHAIINDPQNSANNISTFAGRMKQFSALLSKENMLLGVDEIELGTDADEASSLYKTLLEKLLKQNNQIIITTHHKRLSVLMAENKEVELLAALYDEEKERPTYTFLKGVIGKSYAFETALRYGVPHFLIEKAKTFYGEDKEKLNVLIENSSALERELKQKNEHLENALKEQEYLKNAWLLEMEKQKEIFHNKKLELEKSYQQALNILKSEVASKDTSSMHKEIHKASEILSKHKTNQEIPQIITNFQANEKARYKNESVLIVQILDKGYYWIETELGMRLKAHGSLLKKIQKPPKNKFKPPKTTIPKPKEASLRLDLRGQRSEEALDLLDAFLNDALLGGFEEVLICHGKGSGILEKFVKEFLKNHPKVVSFSDAPINLGGSGVKIVKL

Experiments:
Type in all cases: biochemical
[1] = ATPase assay of HpMutS2 and mutants (TLC, ATP [γ-32P] tracer); conditions: for kcat value, fold reduced compared to the wild-type protein / V max / k cat: ATP hydrolysis; for V max / k cat: Mg2+ 5 mM, 37 °C, Michaelis-Menten analysis; for Km value, fold higher compared to the wild-type protein: for ATP; for effect of DNA on ATPase activity: 1 μM
Source text: Fig. 1 a Schematic representation of HpMutS2 variants used in this study. Walker-A and Walker-B motifs of HpMutS2 were identified by multiple sequence alignment of MutS2 proteins from different bacteria using Clustal Omega (http://www.ebi.ac.uk/Tools/msa/clustalo/). The mutations in the walker-A and Walker-B motifs were introduced using site directed mutagenesis. The mutated amino acids are highlighted in red. All the proteins were C-terminally His6-tagged. The LDLK motif and Smr domain are conserved nuclease sites of HpMutS2. b Effect of DNA substrates on ATPase activity of HpMutS2. HpMutS2 (45 nM) was incubated with increasing concentrations of ATP [0, 10, 20, 40, 60, 80, 100, 200, 400, 600, 800, and 1000 (μM)]. DNA substrates (1 μM) were added separately to the reaction mixtures. After incubation at 37 °C for 30 min the reactions were stopped by EDTA (50 mM) and the products were separated by TLC. ATP [γ-^32P] was used as tracer to monitor the product formation. Reaction velocities were calculated by quantifying the proportion of products formed to un-reacted substrate divided by incubation time TEXT PRINTED IN THE PICTURE: (A) HpMutS2 (1-762): Mol. wt. (kDa): 87.8 | (A) HpMutS2-G338R (1-762): Mol. wt. (kDa): 87.9 | (A) HpMutS2-E413A (1-762): Mol. wt. (kDa): 87.7 | (A) HpMutS2ΔSmr (1-683): Mol. wt. (kDa): 79.3 | (A) HpMutS2ΔSmr-D30A (1-683): Mol. wt. (kDa): 79.2 | (A) HpSmr (684-762): Mol. wt. (kDa): 9.6
To delineate the characteristics of the ATPase activity of HpMutS2, we initially determined the metal ion requirement for ATP hydrolysis by HpMutS2. Purified HpMutS2 was incubated with excess of cold ATP (100 μM) with or without metal ions (5 mM each), and ATP hydrolysis monitored by thin layer chromatography using radiolabeled ATP [γ-^32P] as tracer. […] Based on the above observations, all subsequent ATPase assays were performed in presence of Mg^2+ (5 mM) at 37 °C using the protein concentrations in the linear range of enzymatic activity for 30 min or below.
ATPase activity of HpMutS2 and mutants was carried out in 10 μl of reaction volume containing 1X buffer A (50 mM Tris pH 8.0, 50 mM NaCl, and 1 mM DTT) containing MgCl2 (5 mM), and ATP [γ-^32P] was used as a tracer. A 1:1000 dilution of 25 μC ATP [γ-^32P] (3500 Ci/mmol) was used with indicated amount of the cold ATP in all the assays. All reactions were carried out at 37 °C for indicated time and terminated by the addition of EDTA (50 mM). 1 μl aliquot of each reaction mixture was spotted on a polyethylene cellulose TLC sheets. The reaction components [ATP and inorganic phosphate (Pi)] were separated by thin layer chromatography (TLC) using 0.4 M […] and 0.1 mM EDTA as mobile phase. The dried TLC sheets were visualized by phosphorimaging and quantified using Image Gauge (Version 3.0). The kinetic parameters were determined using the Michaelis–Menten equation by non-linear regression of plot of rate of product formation versus substrate concentration using GraphPad Prism 5 software. Reaction velocities were calculated by quantifying the proportion of products formed to un-reacted substrate divided by incubation time. To determine the effect of DNA on ATPase activity 1 μM of DNA substrates were added separately to the reaction mixture.

Single-stranded DNA = experiment: Nuclease assay (urea-PAGE); conditions: for DNA cleavage rate: No nucleotide, DNA 1 nM, protein 150 nM, 37 °C
Experimental: (§1) Fig. 6 Effect of nucleotide cofactors on nuclease activity of HpMutS2 and mutants. Plots showing time dependent depletion of substrate DNA (a, b, c) Single-stranded DNA and d, e, f Holliday junction. DNA substrates (1 nM) were incubated with HpMutS2 and mutants (150 nM) at 37 °C. Reactions aliquots were removed at 0, 15, 30, 60, 90, and 120 min. The reactions were stopped using (50 mM EDTA + formamide dye) and the products were electrophoresed on urea-PAGE (15 %). The percentage reduction in substrate was calculated by considering DNA without protein as 100 %. Error bars represent standard deviation from two or more different experiments. (g, panel 1–6) Time dependent cleavage of Holliday junction by HpMutS2 and mutants. Reactions were performed as described in (A-F). Reactions aliquots were removed at 0, 15, 30, 60, 90, and 120 min
(§2) Radiolabeled DNA substrates were incubated with HpMutS2 and mutants in buffer D (50 mM Tris pH 8.0, 50 mM NaCl, 1 mM DTT, and 5 mM MgCl2). ATP, ADP, and ATPγS (1 mM each) were added separately to the reaction mixtures. 20 μl reaction aliquots were reomoved at 0, 15, 30, 60, 90, and 120 min. Reactions were stopped by adding EDTA (50 mM) + formammide dye (98 % formamide, 0.1 % bromophenol blue and 0.1 % xylene cyanol). The DNA substrates were denatured at 95 °C for 15 min and the reaction mixtures were separated on denaturing polyacrylamide gel (15 %) containing urea (7 M). The results were visualized and analysed as described earlier. DNA cleavage rates were estimated by dividing the total product formed (pM) in linear range of enzymatic activity by corresponding incubation time (min).

Holliday junction = experiment: Nuclease assay (urea-PAGE); conditions: for DNA cleavage rate: No nucleotide, DNA 1 nM, protein 150 nM, 37 °C
Experimental: as §1, §2

[2] = comparison with literature value

Row | Molecule | kcat value, fold reduced compared to the wild-type protein [1] | V max [1] [µM/min] | k cat [1] [s⁻¹] | Km value, fold higher compared to the wild-type protein [1] | DNA cleavage rate (Single-stranded DNA) [pM/min] | fold reduced nuclease activity compared to wild-type (Single-stranded DNA; no nucleotide) | DNA cleavage rate (Holliday junction) [pM/min] | fold reduced nuclease activity compared to wild-type (Holliday junction; no nucleotide) | effect of DNA on ATPase activity ([1]; 3′- or 5′-overhangs) | Km value, fold higher compared to T. thermophilus MutS1 [1, 2] | Km value, fold higher compared to Thermus thermophilus MutS2 (TtMutS2) [1, 2] | kcat value, fold higher compared to T. thermophilus MutS1 [1, 2] | kcat value, fold higher compared to Thermus thermophilus MutS2 (TtMutS2) [1, 2] | effect of DNA on ATPase activity ([1]; linear DNA substrates ssDNA, dsDNA) | fold reduction of Holliday junction cleavage rate by ADP (Holliday junction; ADP 1 mM vs no nucleotide) | fold reduction of Holliday junction cleavage activity in presence of ADP compared to ATP (Holliday junction; ADP vs ATP, 1 mM) | fold stimulation of Holliday junction cleavage rate by ATP (Holliday junction; ATP 1 mM vs no nucleotide) | fold reduced nuclease activity in presence of ATPγS (Holliday junction; ATPγS 1 mM vs no nucleotide) | fold elevated nuclease activity compared to wild-type (Single-stranded DNA; no nucleotide) | fold elevated nuclease activity compared to wild-type (Holliday junction; no nucleotide)
1 | B1 | ~ 10 fold | 0.19 ± 0.03 | 0.0703 ± 0.011 | comparable | 6.50 ± 0.55 | ~ 4 fold | 4.92 ± 1.25 | ~ 4 fold | – | – | – | – | – | – | – | – | – | – | – | –
2 | B2 | – | 1.88 ± 0.13 | 0.6962 ± 0.048 | – | 24.82 ± 1.15 | – | 26.49 ± 3.95 | – | negligible increases | ~ 8 fold | ~ 9 fold | ~ 4.5 fold | ~ 20 fold | no effect | ~ 1.5 fold | ~ 2.1 fold | ~ 1.5 fold | ~ 1.5 fold | – | –
3 | B3 | ~ 3 fold | 0.64 ± 0.15 | 0.237 ± 0.0555 | ~ 2.3 fold | 40.19 ± 8.73 | – | 41.59 ± 9.53 | – | – | – | – | – | – | – | – | – | – | – | ~ 1.6 fold | ~ 1.6 fold
